Source: US20160200782A1
Blank lines part the entries; values can stand above or below the substance they belong to.

Columns and labels:
Assay in all cases: cell-based or functional assay
Ab1(T315I)(h) (human) = Ab1(T315I)(h) (human) (UniProt P00519)
MELK(h) (human) = MELK(h) (human) (UniProt Q14680)
Arg(h) (human) = Arg(h) (human) (UniProt P42684)
PRAK(h) (human) = PRAK(h) (human) (UniProt Q8IW41)
NEK2(h) (human) = NEK2(h) (human) (UniProt P51955)
CLK3(h) (human) = CLK3(h) (human) (UniProt P49761)
CSK(h) (human) = CSK(h) (human) (UniProt P41240)
PRK2(h) (human) = PRK2(h) (human) (UniProt Q16513)
MRCKβ(h) (human) = MRCKβ(h) (human) (UniProt Q9Y5S2)
Hck(h) activated (human) = Hck(h) activated (human) (UniProt P08631)
p70S6K(h) (human) = p70S6K(h) (human) (UniProt P23443)
PAR-1Bα(h) (human) = PAR-1Bα(h) (human) (UniProt Q7KZI7)
CaMKIIβ(h) (human) = CaMKIIβ(h) (human) (UniProt Q13554)
MAPKAP-K3(h) (human) = MAPKAP-K3(h) (human) (UniProt Q16644)
PKBγ(h) (human) = PKBγ(h) (human) (UniProt Q9Y243)
LIMK1(h) (human) = LIMK1(h) (human) (UniProt P53667)
BTK(h) (human) = BTK(h) (human) (UniProt Q06187)
eEF-2K(h) (human) = eEF-2K(h) (human) (UniProt O00418)
Pim-2(h) (human) = Pim-2(h) (human) (UniProt Q9P1W9)
ARK5(h) (human) = ARK5(h) (human) (UniProt O60285)
MINK(h) (human) = MINK(h) (human) (UniProt Q8N4C8)
NEK11(h) (human) = NEK11(h) (human) (UniProt Q8NG66)
EphB4(h) (human) = EphB4(h) (human) (UniProt P54760)
Fms(h) (human) = Fms(h) (human) (UniProt P07333)
PDGFRα(h) (human) = PDGFRα(h) (human) (UniProt P16234)
PKA(h) (human) = biological target: PKA(h) (human)
EGFR(h) (human) = EGFR(h) (human) (UniProt P00533)
MSSK1(h) (human) = MSSK1(h) (human) (UniProt Q9UPE1)
Tie2(h) (human) = Tie2(h) (human) (UniProt Q02763)
IRAK4(h) (human) = IRAK4(h) (human) (UniProt Q9NWZ3)
[1] = biological target: IGF-1R(h), activated (human) (UniProt P08069)
GRK7(h) (human) = GRK7(h) (human) (UniProt Q8WTQ7)
CDK5/p35(h) (human) = CDK5/p35(h) (human) (UniProt Q00535)
NEK6(h) (human) = NEK6(h) (human) (UniProt Q9HC98)
CHK1(h) (human) = CHK1(h) (human) (UniProt O14757)
LKB1(h) (human) = LKB1(h) (human) (UniProt Q15831)
SAPK3(h) (human) = SAPK3(h) (human) (UniProt P53778)
Pim-3(h) (human) = Pim-3(h) (human) (UniProt Q86V86)
Aurora-A(h) (human) = Aurora-A(h) (human) (UniProt O14965)
TLK2(h) (human) = TLK2(h) (human) (UniProt Q86UE8)
Rsk2(h) (human) = Rsk2(h) (human) (UniProt P51812)
ErbB4(h) (human) = ErbB4(h) (human) (UniProt Q15303)
SAPK2a(T106M)(h) (human) = SAPK2a(T106M)(h) (human) (UniProt Q16539)
FAK(h) (human) = FAK(h) (human) (UniProt Q05397)
PKCµ(h) (human) = PKCµ(h) (human) (UniProt Q15139)
Lck(h) (human) = Lck(h) (human) (UniProt P06239)
FGFR2(h) (human) = FGFR2(h) (human) (UniProt P21802)
EGFR(T790M)(h) (human) = EGFR(T790M)(h) (human) (UniProt P00533)
Fes(h) (human) = Fes(h) (human) (UniProt P07332)
PKG1α(h) (human) = PKG1α(h) (human) (UniProt Q13976)
PrKX(h) (human) = PrKX(h) (human) (UniProt P51817)
PKCβI(h) (human) = PKCβI(h) (human) (UniProt P05771)
Met(Y1248C)(h) (human) = Met(Y1248C)(h) (human) (UniProt P08581)
SRPK2(h) (human) = SRPK2(h) (human) (UniProt P78362)
CaMKIIγ(h) (human) = CaMKIIγ(h) (human) (UniProt Q13555)
PTK5(h) (human) = PTK5(h) (human) (UniProt P42685)
Chain of PTK5(h) (human) (P42685 whole entry): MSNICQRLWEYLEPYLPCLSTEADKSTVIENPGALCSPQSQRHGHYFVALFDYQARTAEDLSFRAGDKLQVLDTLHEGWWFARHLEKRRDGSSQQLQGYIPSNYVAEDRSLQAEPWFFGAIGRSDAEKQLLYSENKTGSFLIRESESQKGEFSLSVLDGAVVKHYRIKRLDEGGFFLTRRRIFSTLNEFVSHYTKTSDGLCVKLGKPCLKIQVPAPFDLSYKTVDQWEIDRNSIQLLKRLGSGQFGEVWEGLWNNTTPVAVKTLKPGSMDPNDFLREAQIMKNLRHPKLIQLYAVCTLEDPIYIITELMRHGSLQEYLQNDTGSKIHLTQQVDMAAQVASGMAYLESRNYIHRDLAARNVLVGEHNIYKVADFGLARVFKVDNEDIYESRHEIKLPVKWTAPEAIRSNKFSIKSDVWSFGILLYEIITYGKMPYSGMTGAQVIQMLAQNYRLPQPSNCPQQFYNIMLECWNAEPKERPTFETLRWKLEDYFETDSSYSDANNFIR

Chain of IGF-1R(h), activated (human) (P08069 959-1367 limits assumed): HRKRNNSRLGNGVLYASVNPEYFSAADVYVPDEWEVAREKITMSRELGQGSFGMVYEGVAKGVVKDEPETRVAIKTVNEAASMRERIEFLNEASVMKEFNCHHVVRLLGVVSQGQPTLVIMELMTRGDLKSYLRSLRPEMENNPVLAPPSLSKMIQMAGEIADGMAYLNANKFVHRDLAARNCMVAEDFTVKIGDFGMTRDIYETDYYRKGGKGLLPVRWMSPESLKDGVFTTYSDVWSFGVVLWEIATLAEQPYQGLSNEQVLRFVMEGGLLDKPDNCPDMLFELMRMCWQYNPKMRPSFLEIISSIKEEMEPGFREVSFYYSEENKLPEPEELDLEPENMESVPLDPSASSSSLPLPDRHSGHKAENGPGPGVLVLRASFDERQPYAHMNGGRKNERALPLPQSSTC
Chain of LKB1(h) (human) (Q15831 whole entry): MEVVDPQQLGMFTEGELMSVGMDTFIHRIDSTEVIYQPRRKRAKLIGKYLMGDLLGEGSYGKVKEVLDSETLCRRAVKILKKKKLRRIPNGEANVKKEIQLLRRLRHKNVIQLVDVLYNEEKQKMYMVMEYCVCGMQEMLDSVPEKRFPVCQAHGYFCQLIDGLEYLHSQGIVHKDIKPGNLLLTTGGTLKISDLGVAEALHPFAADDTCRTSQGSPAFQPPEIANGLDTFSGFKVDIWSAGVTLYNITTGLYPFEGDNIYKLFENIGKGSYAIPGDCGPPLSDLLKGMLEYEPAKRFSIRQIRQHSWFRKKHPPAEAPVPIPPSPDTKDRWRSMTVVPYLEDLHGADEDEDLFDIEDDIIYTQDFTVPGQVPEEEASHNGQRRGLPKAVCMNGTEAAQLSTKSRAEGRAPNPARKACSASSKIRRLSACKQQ
Chain of MAPKAP-K3(h) (human) (Q16644 whole entry): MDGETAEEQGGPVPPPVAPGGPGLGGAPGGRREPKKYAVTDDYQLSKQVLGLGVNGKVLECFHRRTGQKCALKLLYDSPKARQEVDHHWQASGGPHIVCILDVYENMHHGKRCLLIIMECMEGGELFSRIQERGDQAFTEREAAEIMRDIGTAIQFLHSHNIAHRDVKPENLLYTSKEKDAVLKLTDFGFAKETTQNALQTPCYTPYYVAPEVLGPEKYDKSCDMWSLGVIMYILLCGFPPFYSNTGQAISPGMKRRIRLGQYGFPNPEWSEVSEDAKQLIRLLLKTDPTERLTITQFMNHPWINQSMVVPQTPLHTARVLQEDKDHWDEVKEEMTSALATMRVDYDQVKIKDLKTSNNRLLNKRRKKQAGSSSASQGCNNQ
Chain of FGFR2(h) (human) (P21802 456-770 limits assumed): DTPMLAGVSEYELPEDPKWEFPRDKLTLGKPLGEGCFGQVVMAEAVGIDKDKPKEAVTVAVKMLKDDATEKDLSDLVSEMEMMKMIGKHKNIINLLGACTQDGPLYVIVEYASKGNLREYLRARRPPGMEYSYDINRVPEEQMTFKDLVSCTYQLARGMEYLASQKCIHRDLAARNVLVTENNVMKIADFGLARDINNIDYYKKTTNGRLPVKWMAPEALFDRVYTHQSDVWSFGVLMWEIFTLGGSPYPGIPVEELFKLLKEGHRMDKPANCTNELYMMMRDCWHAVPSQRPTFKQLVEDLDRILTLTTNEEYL
Chain of ErbB4(h) (human) (Q15303 676-1308 limits assumed): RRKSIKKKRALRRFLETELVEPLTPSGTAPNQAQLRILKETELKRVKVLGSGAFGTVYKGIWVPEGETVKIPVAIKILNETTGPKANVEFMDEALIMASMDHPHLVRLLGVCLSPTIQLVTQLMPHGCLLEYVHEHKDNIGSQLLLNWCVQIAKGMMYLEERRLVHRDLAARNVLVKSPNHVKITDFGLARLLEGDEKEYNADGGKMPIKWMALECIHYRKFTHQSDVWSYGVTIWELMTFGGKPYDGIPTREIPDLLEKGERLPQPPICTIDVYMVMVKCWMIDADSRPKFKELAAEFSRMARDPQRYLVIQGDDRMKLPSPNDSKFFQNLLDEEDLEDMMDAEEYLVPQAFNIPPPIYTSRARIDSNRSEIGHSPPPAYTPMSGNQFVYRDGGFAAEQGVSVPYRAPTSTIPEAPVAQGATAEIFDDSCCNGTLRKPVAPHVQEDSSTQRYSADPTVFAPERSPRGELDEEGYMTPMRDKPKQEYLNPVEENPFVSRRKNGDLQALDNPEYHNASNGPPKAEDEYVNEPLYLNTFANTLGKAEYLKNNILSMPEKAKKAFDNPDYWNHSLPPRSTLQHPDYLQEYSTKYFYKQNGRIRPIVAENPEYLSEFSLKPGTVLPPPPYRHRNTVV
Chain of LIMK1(h) (human) (P53667 285-638 limits assumed): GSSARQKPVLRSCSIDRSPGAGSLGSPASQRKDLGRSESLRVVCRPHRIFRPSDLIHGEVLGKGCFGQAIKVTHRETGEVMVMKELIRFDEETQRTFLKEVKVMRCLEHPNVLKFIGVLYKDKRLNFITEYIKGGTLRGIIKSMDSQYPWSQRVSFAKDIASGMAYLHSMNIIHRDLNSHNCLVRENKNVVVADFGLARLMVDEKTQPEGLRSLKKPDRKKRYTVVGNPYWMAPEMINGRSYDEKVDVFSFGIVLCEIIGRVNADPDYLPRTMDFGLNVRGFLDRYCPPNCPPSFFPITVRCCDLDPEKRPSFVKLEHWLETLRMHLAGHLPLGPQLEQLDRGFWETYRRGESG
Chain of PKCµ(h) (human) (Q15139 whole entry): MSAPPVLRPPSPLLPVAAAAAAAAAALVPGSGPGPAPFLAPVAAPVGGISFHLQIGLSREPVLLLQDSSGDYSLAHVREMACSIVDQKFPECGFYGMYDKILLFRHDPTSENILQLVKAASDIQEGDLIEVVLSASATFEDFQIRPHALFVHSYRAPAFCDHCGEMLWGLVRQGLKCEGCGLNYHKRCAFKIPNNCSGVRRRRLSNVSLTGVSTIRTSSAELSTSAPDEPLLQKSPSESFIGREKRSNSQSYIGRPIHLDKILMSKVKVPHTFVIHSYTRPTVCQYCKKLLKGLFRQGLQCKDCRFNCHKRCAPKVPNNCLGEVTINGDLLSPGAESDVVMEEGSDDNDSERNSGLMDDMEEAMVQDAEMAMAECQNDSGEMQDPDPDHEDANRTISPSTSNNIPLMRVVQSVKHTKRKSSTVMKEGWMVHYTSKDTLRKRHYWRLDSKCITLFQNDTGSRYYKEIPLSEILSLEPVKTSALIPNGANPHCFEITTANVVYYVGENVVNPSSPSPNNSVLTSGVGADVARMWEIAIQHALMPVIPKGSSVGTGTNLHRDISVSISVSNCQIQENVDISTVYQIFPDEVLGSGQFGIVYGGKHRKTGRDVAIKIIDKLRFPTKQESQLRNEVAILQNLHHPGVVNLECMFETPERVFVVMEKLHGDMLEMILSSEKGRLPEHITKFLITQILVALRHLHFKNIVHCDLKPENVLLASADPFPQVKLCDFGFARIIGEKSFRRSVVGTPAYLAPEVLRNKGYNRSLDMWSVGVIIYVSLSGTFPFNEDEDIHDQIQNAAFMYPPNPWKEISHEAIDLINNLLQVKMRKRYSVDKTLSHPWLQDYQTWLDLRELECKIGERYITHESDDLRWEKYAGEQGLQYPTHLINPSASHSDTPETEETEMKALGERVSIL
Chain of NEK11(h) (human) (Q8NG66 whole entry): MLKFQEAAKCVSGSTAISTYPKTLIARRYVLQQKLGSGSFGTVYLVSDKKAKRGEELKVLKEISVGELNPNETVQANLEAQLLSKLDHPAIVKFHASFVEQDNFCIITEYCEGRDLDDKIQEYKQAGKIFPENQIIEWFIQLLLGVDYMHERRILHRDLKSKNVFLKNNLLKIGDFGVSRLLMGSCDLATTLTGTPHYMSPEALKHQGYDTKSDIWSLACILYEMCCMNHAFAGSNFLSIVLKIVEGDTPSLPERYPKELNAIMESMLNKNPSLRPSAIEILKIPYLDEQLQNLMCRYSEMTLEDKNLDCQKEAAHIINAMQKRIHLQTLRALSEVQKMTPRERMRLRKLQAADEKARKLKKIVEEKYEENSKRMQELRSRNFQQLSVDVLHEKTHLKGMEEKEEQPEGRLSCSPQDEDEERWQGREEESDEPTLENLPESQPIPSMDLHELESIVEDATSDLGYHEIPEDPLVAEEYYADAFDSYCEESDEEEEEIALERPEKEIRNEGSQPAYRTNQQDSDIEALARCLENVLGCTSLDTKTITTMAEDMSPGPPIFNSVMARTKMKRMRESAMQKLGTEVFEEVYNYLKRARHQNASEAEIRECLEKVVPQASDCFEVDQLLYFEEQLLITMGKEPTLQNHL
Chain of Pim-2(h) (human) (Q9P1W9 whole entry): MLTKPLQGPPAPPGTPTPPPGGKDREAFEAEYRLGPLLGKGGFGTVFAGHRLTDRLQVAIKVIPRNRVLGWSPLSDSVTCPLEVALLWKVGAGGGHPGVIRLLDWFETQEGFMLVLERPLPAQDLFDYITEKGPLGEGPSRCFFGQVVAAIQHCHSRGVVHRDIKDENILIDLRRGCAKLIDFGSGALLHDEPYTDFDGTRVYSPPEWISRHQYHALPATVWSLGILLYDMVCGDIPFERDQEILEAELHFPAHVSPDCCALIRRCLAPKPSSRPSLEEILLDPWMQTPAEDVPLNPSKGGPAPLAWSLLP

Substance: MMI-0100 (peptide)
% activity (Ab1(T315I)(h) (human)): 98% | % activity (MELK(h) (human)): 74% | % activity (Arg(h) (human)): 89% | % activity (PRAK(h) (human)): 159% | % activity (NEK2(h) (human)): 102% | % activity (CLK3(h) (human)): 108% | % activity (CSK(h) (human)): 70% | % activity (PRK2(h) (human)): 72% | % activity (MRCKβ(h) (human)): 103% | % activity (Hck(h) activated (human)): 58% | % activity (p70S6K(h) (human)): 89% | % activity (PAR-1Bα(h) (human)): 62% | % activity (CaMKIIβ(h) (human)): 58% | % activity (MAPKAP-K3(h) (human)): 27% | % activity (PKBγ(h) (human)): 105% | % activity (LIMK1(h) (human)): 103% | % activity (BTK(h) (human)): 112% | % activity (eEF-2K(h) (human)): 113% | % activity (Pim-2(h) (human)): 117% | % activity (ARK5(h) (human)): 108% | % activity (MINK(h) (human)): 96% | % activity (NEK11(h) (human)): 102% | % activity (EphB4(h) (human)): 62% | % activity (Fms(h) (human)): 89% | % activity (PDGFRα(h) (human)): 104% | % activity (PKA(h) (human)): 138% | % activity (EGFR(h) (human)): 95% | % activity (MSSK1(h) (human)): 82% | % activity (Tie2(h) (human)): 28% | % activity (IRAK4(h) (human)): 100% | % activity [1]: 126% | % activity (GRK7(h) (human)): 111% | % activity (CDK5/p35(h) (human)): 94% | % activity (NEK6(h) (human)): 109% | % activity (CHK1(h) (human)): 97% | % activity (LKB1(h) (human)): 111% | % activity (SAPK3(h) (human)): 106% | % activity (Pim-3(h) (human)): 98% | % activity (Aurora-A(h) (human)): 120% | % activity (TLK2(h) (human)): 113% | % activity (Rsk2(h) (human)): 65% | % activity (ErbB4(h) (human)): 73% | % activity (SAPK2a(T106M)(h) (human)): 101% | % activity (FAK(h) (human)): 98% | % activity (PKCµ(h) (human)): 79% | % activity (Lck(h) (human)): 346% | % activity (FGFR2(h) (human)): 49% | % activity (EGFR(T790M)(h) (human)): 106% | % activity (Fes(h) (human)): 44% | % activity (PKG1α(h) (human)): 82% | % activity (PrKX(h) (human)): 84% | % activity (PKCβI(h) (human)): 88% | % activity (Met(Y1248C)(h) (human)): 77% | % activity (SRPK2(h) (human)): 92% | % activity (CaMKIIγ(h) (human)): 106% | % activity (PTK5(h) (human)): 135%

Substance: MMI-0200 (peptide)
% activity (Ab1(T315I)(h) (human)): 108% | % activity (MELK(h) (human)): 59% | % activity (Arg(h) (human)): 82% | % activity (PRAK(h) (human)): 115% | % activity (NEK2(h) (human)): 97% | % activity (CLK3(h) (human)): 76% | % activity (CSK(h) (human)): 33% | % activity (PRK2(h) (human)): 74% | % activity (MRCKβ(h) (human)): 102% | % activity (Hck(h) activated (human)): 100% | % activity (p70S6K(h) (human)): 84% | % activity (PAR-1Bα(h) (human)): 110% | % activity (CaMKIIβ(h) (human)): 53% | % activity (MAPKAP-K3(h) (human)): 39% | % activity (PKBγ(h) (human)): 103% | % activity (LIMK1(h) (human)): 109% | % activity (BTK(h) (human)): 100% | % activity (eEF-2K(h) (human)): 136% | % activity (Pim-2(h) (human)): 74% | % activity (ARK5(h) (human)): 93% | % activity (MINK(h) (human)): 103% | % activity (NEK11(h) (human)): 95% | % activity (EphB4(h) (human)): 131% | % activity (Fms(h) (human)): 92% | % activity (PDGFRα(h) (human)): 108% | % activity (PKA(h) (human)): 110% | % activity (EGFR(h) (human)): 83% | % activity (MSSK1(h) (human)): 100% | % activity (Tie2(h) (human)): 53% | % activity (IRAK4(h) (human)): 110% | % activity [1]: 94% | % activity (GRK7(h) (human)): 124% | % activity (CDK5/p35(h) (human)): 92% | % activity (NEK6(h) (human)): 98% | % activity (CHK1(h) (human)): 115% | % activity (LKB1(h) (human)): 99% | % activity (SAPK3(h) (human)): 97% | % activity (Pim-3(h) (human)): 94% | % activity (Aurora-A(h) (human)): 107% | % activity (TLK2(h) (human)): 129% | % activity (Rsk2(h) (human)): 101% | % activity (ErbB4(h) (human)): 82% | % activity (SAPK2a(T106M)(h) (human)): 100% | % activity (FAK(h) (human)): 110% | % activity (PKCµ(h) (human)): 73% | % activity (Lck(h) (human)): 113% | % activity (FGFR2(h) (human)): 73% | % activity (EGFR(T790M)(h) (human)): 113% | % activity (Fes(h) (human)): 74% | % activity (PKG1α(h) (human)): 70% | % activity (PrKX(h) (human)): 112% | % activity (PKCβI(h) (human)): 98% | % activity (Met(Y1248C)(h) (human)): 141% | % activity (SRPK2(h) (human)): 100% | % activity (CaMKIIγ(h) (human)): 94% | % activity (PTK5(h) (human)): 108%

% activity (Ab1(T315I)(h) (human)): 16% | % activity (MELK(h) (human)): 0% | % activity (Arg(h) (human)): 22% | % activity (PRAK(h) (human)): 95% | % activity (NEK2(h) (human)): 0% | % activity (CLK3(h) (human)): 76% | % activity (CSK(h) (human)): 2% | % activity (PRK2(h) (human)): 7% | % activity (MRCKβ(h) (human)): -10% | % activity (Hck(h) activated (human)): 67% | % activity (p70S6K(h) (human)): 3% | % activity (PAR-1Bα(h) (human)): 97% | % activity (CaMKIIβ(h) (human)): 3% | % activity (MAPKAP-K3(h) (human)): 9% | % activity (PKBγ(h) (human)): 20% | % activity (LIMK1(h) (human)): 87% | % activity (BTK(h) (human)): 18% | % activity (eEF-2K(h) (human)): 43% | % activity (Pim-2(h) (human)): 46% | % activity (ARK5(h) (human)): 20% | % activity (MINK(h) (human)): 5% | % activity (NEK11(h) (human)): 2% | % activity (EphB4(h) (human)): 38% | % activity (Fms(h) (human)): 14% | % activity (PDGFRα(h) (human)): 40% | % activity (PKA(h) (human)): 118% | % activity (EGFR(h) (human)): -1% | % activity (MSSK1(h) (human)): 22% | % activity (Tie2(h) (human)): 22% | % activity (IRAK4(h) (human)): 3% | % activity [1]: 45% | % activity (GRK7(h) (human)): 93% | % activity (CDK5/p35(h) (human)): 59% | % activity (NEK6(h) (human)): 49% | % activity (CHK1(h) (human)): 65% | % activity (LKB1(h) (human)): 51% | % activity (SAPK3(h) (human)): 24% | % activity (Pim-3(h) (human)): 37% | % activity (Aurora-A(h) (human)): 110% | % activity (TLK2(h) (human)): 133% | % activity (Rsk2(h) (human)): 14% | % activity (ErbB4(h) (human)): 2% | % activity (SAPK2a(T106M)(h) (human)): 32% | % activity (FAK(h) (human)): 94% | % activity (PKCµ(h) (human)): 10% | % activity (Lck(h) (human)): 359% | % activity (FGFR2(h) (human)): 12% | % activity (EGFR(T790M)(h) (human)): 70% | % activity (Fes(h) (human)): 23% | % activity (PKG1α(h) (human)): 25% | % activity (PrKX(h) (human)): 57% | % activity (PKCβI(h) (human)): 1% | % activity (Met(Y1248C)(h) (human)): 73% | % activity (SRPK2(h) (human)): 80% | % activity (CaMKIIγ(h) (human)): 3% | % activity (PTK5(h) (human)): 96%
Substance: MMI-0500 (peptide)
